{"source": "paper PMC4653306", "about": "“Metagenomics of an Alkaline Hot Spring in Galicia (Spain): Microbial Diversity Analysis and Screening for Novel Lipolytic Enzymes” (Frontiers in Microbiology, 2015)", "substrate": "CCCCCCCCCCCC(=O)Oc1ccc([N+](=O)[O-])cc1", "test": "spectrophotometric p-nitrophenol release (A400), initial rates, Michaelis-Menten fit", "format": "biochemical, uncultured organism", "conditions": "extracellular medium of recombinant yeast, Tris/HCl pH 7.5, CaCl2, 40 °C, pNP12 0.002-2.5 mM", "from_the_text": "spectrophotometric p-nitrophenol release (A400), initial rates, Michaelis-Menten fit on LOB4Est"}
{"protein": "LOB4Est (uncultured organism) (protein, yeast alpha-factor secretion signal fusion (removed on secretion), N-terminal FLAG-tag kept; secreted by Saccharomyces cerevisiae BJ3505 (YEpFLAG-1), assayed as unpurified extracellular medium) SRPRTAVHDRVLELVQQQIAAGQQLGVQVCAYQNGEKIVDIVAGVMGPDDPRPVQPDTLFNSFSTTKGVAATALHILAEQGKLEYEQPVARYWPAFAANGKERVTVAQAMSHQAGLHAMPTPSTIETLCDWEGGLNWVASGVPAWEPGTATGYHAITYAWVVGGIVYGATGRHIKDVIREEIAIPLGVADELFVGIPEGVEDRLATLAVPAPGEGMALPIPPDHDFFKAMPPSLGGHVYNDMRVRRACLPSANGHFSARALAKMYAALAGGGVVDGVRLVSPERIALMQRILTADMDRVLMLPLRKGVGFMMGGPVNGVSGVFGPRETAFGHSGAGGSTAFCDPETGLAVAVTINQMQMTLQAEGPTYAICQLIREELGCA", "values": [{"measurement": "Km", "value": 298, "unit": "µM"}, {"measurement": "Vmax", "value": 264, "unit": "µM/min"}]}
